The chains are these.
B1: Cdc73 (natural protein, S. cerevisiae, UniProt Q06697 1-393, looked up)
chain: MANSLDRLREHLKNGDKLVLKNNEGQSTDDITKATMVETLSSDGSTQDSFPLNEETEIEIDGSLVQLRIIVHCWMNKDSSAADYLADCQNKQLTNVSFLQRTDLINWLSGNTESSQYLKAPGQKGETSDKVDIENKTLAGELSTVKSTTSASLENDSEVSDPVVVETMKHERILVDHNSALRGAKPINFGYLIKDAELKLVQSIKGSLRGSKLPPGHKGAHGRISKTNGSSGGPRKDPIILIPSAASSILTVANIKQFLLESKYVNPRNLPSVPNGLVNIEKNFERISRPIRFIIVDNTRMFTKPEYWDRVVAIFTTGHTWQFNNYQWNSPQELFQRCKGYYFHFAGDSVPQHVQQWNVEKVELDKNKRFKDVEVVRYFWHSLEKELISRGYR
notes: Cdc73, S. cerevisiae, full length, amplified from genomic DNA; source: E. coli BL21 CodonPlus(DE3)RIL, coexpressed with the other subunits; in lysate and purified as part of Paf1C

In experiment [1] the target is T1, Ctr9-ΔC913 (S. cerevisiae, UniProt P89105 1-913).
T1 construct: Ctr9, S. cerevisiae, variant lacking 164 amino acids at its C terminus (Ctr9-ΔC913); also called Ctr9 (in the Pol II-Paf1C-TFIIS EC); source: E. coli BL21 CodonPlus(DE3)RIL, coexpressed with the other subunits; in lysate and purified as part of Paf1C-Ctr9-ΔC913
T1 sequence (looked up): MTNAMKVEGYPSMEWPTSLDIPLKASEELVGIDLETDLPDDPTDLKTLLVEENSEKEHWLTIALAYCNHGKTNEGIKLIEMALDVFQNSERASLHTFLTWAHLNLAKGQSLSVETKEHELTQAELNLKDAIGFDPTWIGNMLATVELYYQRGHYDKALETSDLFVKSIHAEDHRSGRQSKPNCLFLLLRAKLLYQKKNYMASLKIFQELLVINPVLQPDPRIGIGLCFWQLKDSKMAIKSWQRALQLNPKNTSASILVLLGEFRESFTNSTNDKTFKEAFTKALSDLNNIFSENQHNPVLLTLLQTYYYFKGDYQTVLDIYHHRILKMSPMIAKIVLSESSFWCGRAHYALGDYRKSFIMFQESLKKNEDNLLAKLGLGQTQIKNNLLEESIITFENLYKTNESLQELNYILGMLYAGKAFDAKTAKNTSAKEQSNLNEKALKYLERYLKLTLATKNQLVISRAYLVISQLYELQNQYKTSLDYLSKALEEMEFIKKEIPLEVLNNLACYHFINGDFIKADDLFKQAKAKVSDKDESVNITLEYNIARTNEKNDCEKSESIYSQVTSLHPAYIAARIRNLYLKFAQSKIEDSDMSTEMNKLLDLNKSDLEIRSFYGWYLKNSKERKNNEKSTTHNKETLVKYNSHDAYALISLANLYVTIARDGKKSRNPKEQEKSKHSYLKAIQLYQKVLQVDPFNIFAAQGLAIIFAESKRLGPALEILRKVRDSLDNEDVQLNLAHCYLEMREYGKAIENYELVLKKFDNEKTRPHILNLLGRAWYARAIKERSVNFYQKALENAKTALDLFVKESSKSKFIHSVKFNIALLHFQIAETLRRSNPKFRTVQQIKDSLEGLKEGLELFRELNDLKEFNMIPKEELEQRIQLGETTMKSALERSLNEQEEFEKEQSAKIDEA
Description: cross-linking; Pol II-Paf1C-TFIIS EC after SEC, 425 μg/ml, 0.5 mM BS3, 30 min, 30 °C; trypsin, Orbitrap Fusion LC-MS/MS, pLink, FDR 1%. To be noted: both partners purified.

The target of experiment [2] is T2, Rpb2 (Pol II subunit) (yeast, UniProt P08518 1-1224).
T2 construct: Rpb2, subunit of yeast Pol II; source: part of purified Pol II
The experiment is described as above. To be noted: both partners purified.

For experiment [3], the target named is T3, Ctr9 (full length, C-terminal hexahistidine tag) (S. cerevisiae, UniProt P89105 1-1077).
T3 construct: Ctr9, S. cerevisiae, full length, amplified from genomic DNA, in pET24b; source: E. coli BL21 CodonPlus(DE3)RIL, coexpressed with the other subunits; in lysate and purified as part of Paf1C; not shown: His6, C-terminal, kept
T3 sequence (looked up): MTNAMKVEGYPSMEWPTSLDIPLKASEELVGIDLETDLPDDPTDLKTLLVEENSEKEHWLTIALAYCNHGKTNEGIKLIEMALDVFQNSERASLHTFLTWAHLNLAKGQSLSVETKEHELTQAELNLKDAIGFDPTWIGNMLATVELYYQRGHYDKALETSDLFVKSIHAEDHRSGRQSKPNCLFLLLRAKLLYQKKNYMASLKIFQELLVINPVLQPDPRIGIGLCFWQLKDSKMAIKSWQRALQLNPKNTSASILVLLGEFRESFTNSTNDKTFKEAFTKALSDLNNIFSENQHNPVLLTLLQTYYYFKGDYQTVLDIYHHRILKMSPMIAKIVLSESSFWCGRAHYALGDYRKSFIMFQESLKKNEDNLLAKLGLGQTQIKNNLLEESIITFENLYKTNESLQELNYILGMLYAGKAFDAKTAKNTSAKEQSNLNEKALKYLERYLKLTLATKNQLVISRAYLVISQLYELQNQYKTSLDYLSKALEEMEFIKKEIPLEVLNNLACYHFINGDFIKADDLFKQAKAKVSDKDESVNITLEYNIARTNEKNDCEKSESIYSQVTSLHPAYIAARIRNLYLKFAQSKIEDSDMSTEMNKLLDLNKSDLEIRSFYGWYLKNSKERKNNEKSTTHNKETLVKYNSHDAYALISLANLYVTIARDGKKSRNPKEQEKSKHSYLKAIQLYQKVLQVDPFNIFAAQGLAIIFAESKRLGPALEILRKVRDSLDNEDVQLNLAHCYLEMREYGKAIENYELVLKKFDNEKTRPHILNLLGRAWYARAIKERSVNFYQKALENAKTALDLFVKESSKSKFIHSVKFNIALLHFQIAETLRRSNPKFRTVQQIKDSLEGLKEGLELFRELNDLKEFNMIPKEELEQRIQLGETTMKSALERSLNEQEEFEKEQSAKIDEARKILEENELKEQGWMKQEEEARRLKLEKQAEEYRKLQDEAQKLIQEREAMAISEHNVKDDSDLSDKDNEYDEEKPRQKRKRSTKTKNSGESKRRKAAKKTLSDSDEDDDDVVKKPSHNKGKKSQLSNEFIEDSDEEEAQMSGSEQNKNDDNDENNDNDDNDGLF
Description: co-purification after coexpression (Ni-NTA, cation exchange, SEC); subunits coexpressed in E. coli from three vectors, cells colysed; Ni-NTA (hexahistidine tag on Ctr9), HiTrap SP cation exchange, Superose 6 size exclusion; SDS-PAGE, subunits confirmed by mass spectrometry. To be noted: partners not purified. In general terms: SEC sorts molecules by how far they enter the pores of the column.

The target of experiment [4] is T4, Rpb1 (Pol II subunit) (yeast, UniProt P04050 1-1733).
T4 construct: Rpb1, largest subunit of yeast Pol II; source: part of purified Pol II
As to the kind of experiment: cross-linking; Pol II-Paf1C-TFIIS EC after SEC, 425 μg/ml, 0.5 mM BS3, 30 min, 30 °C; trypsin, Orbitrap Fusion LC-MS/MS, pLink, FDR 1%. Particulars: both partners purified.

The target in experiment [5] is T5, Rtf1 (S. cerevisiae, UniProt P53064 1-558).
T5 construct: Rtf1, S. cerevisiae, full length, amplified from genomic DNA; source: E. coli BL21 CodonPlus(DE3)RIL, coexpressed with Cdc73; in lysate and purified as part of Paf1C
The experiment is described as above. Particulars: both partners purified.

Experiment [6] concerns the target B1. The description is as above. To be noted: both partners purified.

T2 sequence (P08518 whole entry): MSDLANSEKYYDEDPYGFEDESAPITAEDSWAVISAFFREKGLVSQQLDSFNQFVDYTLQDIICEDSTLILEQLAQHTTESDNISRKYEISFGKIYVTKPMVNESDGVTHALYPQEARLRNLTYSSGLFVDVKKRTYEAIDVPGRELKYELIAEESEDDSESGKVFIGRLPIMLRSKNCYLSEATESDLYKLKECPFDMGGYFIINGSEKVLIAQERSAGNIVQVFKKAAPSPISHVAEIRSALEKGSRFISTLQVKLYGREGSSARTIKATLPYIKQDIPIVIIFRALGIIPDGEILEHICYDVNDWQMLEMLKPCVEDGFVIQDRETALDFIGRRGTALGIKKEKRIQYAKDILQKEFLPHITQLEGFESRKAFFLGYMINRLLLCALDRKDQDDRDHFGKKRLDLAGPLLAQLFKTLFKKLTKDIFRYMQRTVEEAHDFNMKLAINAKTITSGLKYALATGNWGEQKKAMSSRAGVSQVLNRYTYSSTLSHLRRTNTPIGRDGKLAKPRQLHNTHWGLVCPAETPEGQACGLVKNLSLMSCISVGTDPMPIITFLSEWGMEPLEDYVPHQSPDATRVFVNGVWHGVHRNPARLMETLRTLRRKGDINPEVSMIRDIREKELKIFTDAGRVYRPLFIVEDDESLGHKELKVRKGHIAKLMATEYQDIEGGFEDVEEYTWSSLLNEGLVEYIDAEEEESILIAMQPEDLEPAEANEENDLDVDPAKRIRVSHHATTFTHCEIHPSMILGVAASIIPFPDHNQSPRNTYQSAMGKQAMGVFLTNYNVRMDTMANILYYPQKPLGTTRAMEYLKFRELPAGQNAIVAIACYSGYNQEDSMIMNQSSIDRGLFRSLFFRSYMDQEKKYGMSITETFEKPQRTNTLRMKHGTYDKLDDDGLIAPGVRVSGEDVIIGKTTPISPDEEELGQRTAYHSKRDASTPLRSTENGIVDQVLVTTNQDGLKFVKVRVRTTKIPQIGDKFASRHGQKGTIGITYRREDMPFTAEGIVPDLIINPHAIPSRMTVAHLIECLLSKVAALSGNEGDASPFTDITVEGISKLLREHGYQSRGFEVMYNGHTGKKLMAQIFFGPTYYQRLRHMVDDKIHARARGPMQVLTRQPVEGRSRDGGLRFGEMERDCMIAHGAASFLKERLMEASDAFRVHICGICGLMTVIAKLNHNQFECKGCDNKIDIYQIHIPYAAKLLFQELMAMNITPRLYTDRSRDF
T4 sequence (P04050 whole entry): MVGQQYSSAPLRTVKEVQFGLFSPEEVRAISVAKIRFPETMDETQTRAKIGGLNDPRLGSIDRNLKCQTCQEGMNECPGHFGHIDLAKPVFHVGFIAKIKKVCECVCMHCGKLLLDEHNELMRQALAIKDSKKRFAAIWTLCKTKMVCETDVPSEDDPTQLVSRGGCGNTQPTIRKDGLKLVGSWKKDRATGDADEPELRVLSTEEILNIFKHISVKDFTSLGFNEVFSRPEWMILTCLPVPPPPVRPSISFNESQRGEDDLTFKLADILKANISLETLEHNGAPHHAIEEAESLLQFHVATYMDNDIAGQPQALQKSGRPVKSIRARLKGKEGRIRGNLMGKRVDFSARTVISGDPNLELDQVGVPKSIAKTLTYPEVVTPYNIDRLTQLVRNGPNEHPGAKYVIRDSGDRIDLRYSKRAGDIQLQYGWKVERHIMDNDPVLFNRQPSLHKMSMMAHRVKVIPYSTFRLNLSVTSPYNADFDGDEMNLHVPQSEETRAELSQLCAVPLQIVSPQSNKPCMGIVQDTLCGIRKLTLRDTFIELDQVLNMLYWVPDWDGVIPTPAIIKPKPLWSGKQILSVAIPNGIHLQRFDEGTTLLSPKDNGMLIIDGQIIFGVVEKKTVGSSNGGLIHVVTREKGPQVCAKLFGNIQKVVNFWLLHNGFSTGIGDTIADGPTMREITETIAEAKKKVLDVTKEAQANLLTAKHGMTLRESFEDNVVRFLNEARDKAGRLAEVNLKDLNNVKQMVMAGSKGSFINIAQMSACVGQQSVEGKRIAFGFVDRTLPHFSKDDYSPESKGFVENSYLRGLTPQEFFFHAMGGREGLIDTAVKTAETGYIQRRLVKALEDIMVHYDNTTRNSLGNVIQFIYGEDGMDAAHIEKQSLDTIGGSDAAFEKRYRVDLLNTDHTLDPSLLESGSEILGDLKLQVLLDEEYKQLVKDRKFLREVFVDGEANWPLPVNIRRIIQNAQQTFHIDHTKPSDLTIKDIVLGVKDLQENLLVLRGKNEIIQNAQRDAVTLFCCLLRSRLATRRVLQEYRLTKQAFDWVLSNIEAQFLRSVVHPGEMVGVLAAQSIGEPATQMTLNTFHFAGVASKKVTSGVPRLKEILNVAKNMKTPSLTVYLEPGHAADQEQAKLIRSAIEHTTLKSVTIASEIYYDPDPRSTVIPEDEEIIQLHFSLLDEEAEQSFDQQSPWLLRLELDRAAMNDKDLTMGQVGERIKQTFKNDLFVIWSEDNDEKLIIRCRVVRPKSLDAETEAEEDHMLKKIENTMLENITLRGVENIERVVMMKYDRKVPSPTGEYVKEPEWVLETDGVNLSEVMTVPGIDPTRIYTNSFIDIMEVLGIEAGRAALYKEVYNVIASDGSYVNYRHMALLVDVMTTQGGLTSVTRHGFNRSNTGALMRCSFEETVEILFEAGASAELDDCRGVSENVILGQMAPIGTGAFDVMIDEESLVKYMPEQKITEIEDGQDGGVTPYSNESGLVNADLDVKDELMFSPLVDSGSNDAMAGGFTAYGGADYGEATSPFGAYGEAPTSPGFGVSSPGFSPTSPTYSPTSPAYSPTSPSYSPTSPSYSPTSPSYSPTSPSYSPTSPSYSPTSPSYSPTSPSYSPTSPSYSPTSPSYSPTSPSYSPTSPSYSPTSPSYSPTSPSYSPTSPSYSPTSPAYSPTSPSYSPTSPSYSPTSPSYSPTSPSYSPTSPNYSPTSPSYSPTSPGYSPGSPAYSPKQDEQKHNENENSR
T5 sequence (P53064 whole entry): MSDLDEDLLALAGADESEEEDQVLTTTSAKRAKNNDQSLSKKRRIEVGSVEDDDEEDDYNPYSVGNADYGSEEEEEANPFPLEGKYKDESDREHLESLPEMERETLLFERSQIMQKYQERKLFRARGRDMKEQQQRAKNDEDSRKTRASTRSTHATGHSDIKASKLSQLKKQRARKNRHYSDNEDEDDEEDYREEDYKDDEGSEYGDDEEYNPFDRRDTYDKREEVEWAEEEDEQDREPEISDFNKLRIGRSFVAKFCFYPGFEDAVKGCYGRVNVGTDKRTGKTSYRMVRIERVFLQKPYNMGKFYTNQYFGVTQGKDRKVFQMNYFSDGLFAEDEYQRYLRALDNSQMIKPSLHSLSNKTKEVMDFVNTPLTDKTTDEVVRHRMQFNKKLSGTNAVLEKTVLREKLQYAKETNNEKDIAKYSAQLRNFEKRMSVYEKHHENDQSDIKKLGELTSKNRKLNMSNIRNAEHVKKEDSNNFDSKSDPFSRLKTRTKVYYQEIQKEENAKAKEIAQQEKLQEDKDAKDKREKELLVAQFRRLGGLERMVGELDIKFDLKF

On to B1, for which the binding result in experiment [1], in experiment [2] and in experiment [3] was “binds” in each case.

B2: Leo1 (natural protein, S. cerevisiae, UniProt P38439 1-464, looked up)
chain: MSSESPQDQPQKEQISNNVGVTTNSTSNEETSRSQDDNVKEVNGNDDTKEEEQEEDAELDDLFGDDNDDDDDDDVKKSETEKSDSDSDEDDEGENINHRSRHRESLGLDDDEAEEQAMYTRKFYGEDANNFSDQDETTHTFKEENVELVRHIIPSKANVNETASHNEIFYARIPNFLTIDPIPFDPPSFEAKVNERASNSASREDQLDDRLIDENTVRWRYSRDKDQHVFKESNTQIVQWSDGTYSLKVGEECTDILVNDTSNTFLTVSHDQQELIQCYEGGEIKKTLMFIPTSTNSKIHQKLSKAVIRRNQRQSKGPGTYIVSMDPEVEKKELERKQSQILRDRRRRQLKEKEKQESPDAAFETGFRKQNSPTTYGASRRNEYEEDDFLVDDDEEEEAAFDDEEDDNEEEEEEEDADEENASRLRNLKREGAAMYREEEEEEKDRSETKRRRVAVIEDDEDED
notes: Leo1, S. cerevisiae, open reading frame chemically synthesized (codon-optimised), in pCDFDuet-1; source: E. coli BL21 CodonPlus(DE3)RIL, coexpressed with the other subunits; in lysate and purified as part of Paf1C
On to B2, for which the binding result in experiment [4], in experiment [1], in experiment [5], in experiment [2] and in experiment [3] was “binds” throughout.

B3: Rpb11 (Pol II subunit) (natural protein, yeast)
chain: MNAPDRFELFLLGEGESKLKIDPDTKAPNAVVITFEKEDHTLGNLIRAELLNDRKVLFAAYKVEHPFFARFKLRIQTTEGYDPKDALKNACNSIINKLGALKTNFETEWNLQTLAADDAF
notes: Rpb11, subunit of yeast Pol II; source: part of purified Pol II
With B3, in experiment [6], the binding result was “binds”.

B4: Rpb3 (Pol II subunit) (natural protein, yeast)
chain: MSEEGPQVKIREASKDNVDFILSNVDLAMANSLRRVMIAEIPTLAIDSVEVETNTTVLADEFIAHRLGLIPLQSMDIEQLEYSRDCFCEDHCDKCSVVLTLQAFGESESTTNVYSKDLVIVSNLMGRNIGHPIIQDKEGNGVLICKLRKGQELKLTCVAKKGIAKEHAKWGPAAAIEFEYDPWNKLKHTDYWYEQDSAKEWPQSKNCEYEDPPNEGDPFDYKAQADTFYMNVESVGSIPVDQVVVRGIDTLQKKVASILLALTQMDQDKVNFASGDNNTASNMLGSNEDVMMTGAEQDPYSNASQMGNTGSGGYDNAW
notes: Rpb3, subunit of yeast Pol II; source: part of purified Pol II
Take B4: the binding result in experiment [6] is given as “binds”.

(Values after publication PMC5467213, “Architecture of the RNA polymerase II-Paf1C-TFIIS transcription elongation complex” (Nature Communications, 2017).)
